Data from article doi:10.1101/058016.
Blank lines part the entries; values can stand above or below the substance they belong to.

What was measured:
[1] = target: calmodulin on CaM-Sepharose 4B (UniProt P0DP23); test: pull-down
[2] = target: PDZ3 of PSD-95 (residues 302-402), soluble recombinant domain (murine) (UniProt Q62108); test: SPR
[3] = target: PDZ1 of PSD-95 (residues 61-151), soluble recombinant domain (murine) (UniProt Q62108); test: SPR
[4] = target: calmodulin (CaM), used with Ca2+ (UniProt P0DP23); test: SPR
[5] = target: PDZ123 of PSD-95 (residues 61-403), soluble recombinant fragment with all three PDZ domains (murine) (UniProt Q62108); test: SPR
[6] = target: PDZ123 (PSD-95 residues 61-402)-HaloTag fusion on HaloLink resin (murine) (UniProt Q62108); test: pull-down

Kd [1]: 31 nM
Kd [2]: 730 nM
Kd [3]: 140 nM
Kd [4]: 9 nM
Substance: r-synGAP (soluble recombinant synGAP, residues 103-1293 of synGAP A1-α1) (domain or fragment)

fold increase of KDapp over unphosphorylated r-synGAP [5]: 10 fold
Substance: r-synGAP phosphorylated by CaMKII (domain or fragment)

percent reduction of binding relative to wild-type [6]: 50%
fold increase of KDapp over wild-type r-synGAP [5]: 4 fold
Substance: r-synGAP S1283D (domain or fragment)

Kd [1]: 210 nM
Substance: sr-synGAP (C-terminal truncated synGAP, residues 103-725 of synGAP A1-α1) (domain or fragment)
